For eight molecules, Kd results are on record in article PMC5198506, “Mechanistic differences between HIV-1 and SIV nucleocapsid proteins and cross-species HIV-1 genomic RNA recognition”.

For data set [1], the target named is HIV-1 NC (HIV-1 NL4-3) (UniProt P12493). The experiment in a line: fluorescence anisotropy salt titration. The settings on record: FA: 20 mM HEPES pH 7.5, 30-750 mM NaCl, 1 mM MgCl2, 20 µM TCEP, 5 mM 2-mercaptoethanol, room temperature, 400 nM NC, 10 nM RNA (Gag: 20 nM RNA, plus 2 mM …). Background: Polarisation of emitted light reports the rotation of a fluorescent probe.

For data set [2], the system named is SIV NC (SIVmne). Nature of the data set: fluorescence anisotropy salt titration. Particulars: FA: 20 mM HEPES pH 7.5, 30-750 mM NaCl, 1 mM MgCl2, 20 µM TCEP, 5 mM 2-mercaptoethanol, room temperature, 400 nM NC, 10 nM RNA (Gag: 20 nM RNA, plus 2 mM …).
In data set [3] the target is HIV-1 NC (HIV-1 NL4-3) (UniProt P12493). Nature of the data set: single-molecule DNA stretching. The settings on record: FA: 20 mM HEPES pH 7.5, 30-750 mM NaCl, 1 mM MgCl2, 20 µM TCEP, 5 mM 2-mercaptoethanol, room temperature, 400 nM NC, 10 nM RNA (Gag: 20 nM RNA, plus 2 mM …).
The test system of data set [4] is SIV NC (SIVmne). The experiment in a line: single-molecule DNA stretching. The settings on record: FA: 20 mM HEPES pH 7.5, 30-750 mM NaCl, 1 mM MgCl2, 20 µM TCEP, 5 mM 2-mercaptoethanol, room temperature, 400 nM NC, 10 nM RNA (Gag: 20 nM RNA, plus 2 mM …).
For data set [5], the target named is T1, HIV-1 NC (HIV-1 NL4-3, UniProt P12493 378-432). The experiment in a line: fluorescence anisotropy salt titration; Kd(1M) extrapolated to 1 M NaCl; Zeff 2.4 ± 0.4; FA: 20 mM HEPES pH 7.5, 30-750 mM NaCl, 1 mM MgCl2, 20 µM TCEP, 5 mM 2-mercaptoethanol, room temperature, 400 nM NC, 10 nM RNA (Gag: 20 nM RNA, plus 2 mM Tris-HCl pH 7.4); stretching buffer not in material. The settings on record: protein: recombinant; label: 3' fluorescein (thiosemicarbazide); hairpin.

Data set [6] concerns the target T1, HIV-1 NC. The experiment in a line: fluorescence anisotropy salt titration; Kd(1M) extrapolated to 1 M NaCl; Zeff 2.6 ± 0.4; FA: 20 mM HEPES pH 7.5, 30-750 mM NaCl, 1 mM MgCl2, 20 µM TCEP, 5 mM 2-mercaptoethanol, room temperature, 400 nM NC, 10 nM RNA (Gag: 20 nM RNA, plus 2 mM Tris-HCl pH 7.4); stretching buffer not in material. The settings on record: protein: recombinant; label: 3' fluorescein (thiosemicarbazide); hairpin.

Data set [7] concerns the target T1, HIV-1 NC. The experiment in a line: fluorescence anisotropy salt titration; Kd(1M) extrapolated to 1 M NaCl; Zeff 3.6 ± 0.9; FA: 20 mM HEPES pH 7.5, 30-750 mM NaCl, 1 mM MgCl2, 20 µM TCEP, 5 mM 2-mercaptoethanol, room temperature, 400 nM NC, 10 nM RNA (Gag: 20 nM RNA, plus 2 mM Tris-HCl pH 7.4); stretching buffer not in material. Particulars: protein: recombinant; label: 3' fluorescein (thiosemicarbazide); stem-loops.

On to HIV-1 Psi RNA (WT), for which the Kd – broadly, the concentration at which binding is half-saturated – with HIV-1 NC (HIV-1 NL4-3) [1] stood at 4 µM; in the data set with SIV NC (SIVmne) [2], 3.9 µM. On to “GGUCUCUCUGGUUAGACCAGAUCUGAGCCUGGGAGCUCUCUGGCUAACUAGGGAACCCACUGCUUAAGCCUCAAUAAAGCUUGCCUUGAGUGCUCAAAGUAGUG [HIV-1 TARpolyA RNA]”, for which the Kd in the data set on SIV NC (SIVmne) [2] worked out at 82 µM. As for “CCACGACGGAGUGCUCCUAUAAAGACGCGGGUCGGUACCAGACGGCGUGAGGAGCGGGAGAGGAAGAGGCCUCCGGUUGCAGGUAAGUGCAACACAAAAAAGAAAUAGCUGUCUUUUAUCCAGGAAGGGGUAAUAAGAUAGAGUGG [SIV Psi RNA (WT)]”, the Kd in the data set on SIV NC (SIVmne) [2] was 72 µM.

Take “AGUCGCUCUGCGGAGAGGCUGGCAGAUUGAGCCCUGGGAGGUUCUCUCCAGCACUAGCAGGUAGAGCCUGGGUGUUCCCUGCUAGACUCUCACCAGCACUUGGCCGGUGCUGGGCAGAGUGACU [SIV TAR RNA]”: in the data set on SIV NC (SIVmne) [2], the Kd came out at 62 µM. With “dsDNA used for single-molecule stretching”, the Kd with HIV-1 NC (HIV-1 NL4-3) [3] is 0.0042 µM; with SIV NC (SIVmne) [4], 0.0055 µM.

B1: HIV-1 TARpolyA RNA (structured_RNA)
RNA: GGUCUCUCUGGUUAGACCAGAUCUGAGCCUGGGAGCUCUCUGGCUAACUAGGGAACCCACUGCUUAAGCCUCAAUAAAGCUUGCCUUGAGUGCUCAAAGUAGUG
With B1, in the data set with HIV-1 NC [5], the dissociation constant (Kd) was 120 µM.

B2: SIV TAR RNA (structured_RNA)
RNA: AGUCGCUCUGCGGAGAGGCUGGCAGAUUGAGCCCUGGGAGGUUCUCUCCAGCACUAGCAGGUAGAGCCUGGGUGUUCCCUGCUAGACUCUCACCAGCACUUGGCCGGUGCUGGGCAGAGUGACU
In the case of B2, in the data set with HIV-1 NC [6], the Kd is 81 µM.

B3: SIV Psi RNA (WT) (structured_RNA)
RNA: CCACGACGGAGUGCUCCUAUAAAGACGCGGGUCGGUACCAGACGGCGUGAGGAGCGGGAGAGGAAGAGGCCUCCGGUUGCAGGUAAGUGCAACACAAAAAAGAAAUAGCUGUCUUUUAUCCAGGAAGGGGUAAUAAGAUAGAGUGG
For B3, the Kd in the data set with HIV-1 NC [7] is 100 µM.
